Values of other authors as cited in publication PMC2846234.

Molecular target: beta sliding clamp (Escherichia coli) (UniProt P0A988)
UniProt P0A988, sequence (P0A988 whole entry): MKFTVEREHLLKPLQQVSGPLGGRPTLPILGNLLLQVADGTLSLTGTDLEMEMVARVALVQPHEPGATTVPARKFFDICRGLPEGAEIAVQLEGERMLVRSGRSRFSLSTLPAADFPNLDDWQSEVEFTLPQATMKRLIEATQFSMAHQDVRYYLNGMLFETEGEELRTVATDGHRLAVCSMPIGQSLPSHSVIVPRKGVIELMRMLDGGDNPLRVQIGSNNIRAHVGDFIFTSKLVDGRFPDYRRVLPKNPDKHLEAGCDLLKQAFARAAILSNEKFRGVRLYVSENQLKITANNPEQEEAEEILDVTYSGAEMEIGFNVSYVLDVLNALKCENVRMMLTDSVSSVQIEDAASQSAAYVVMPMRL

Q: With DNA polymerase II (from UniProt P21189) as the substance, how does the Kd read?
A: 32 nM
